Laboratory results: US20210107998A1 (Boehringer Ingelheim, published 2021)

Columns and labels:
Experiment in all cases: cell-based or functional assay
[1] = target: T1, Recombinant human IL-23 (human, UniProt P29460 23-328)
T1 sequence 1: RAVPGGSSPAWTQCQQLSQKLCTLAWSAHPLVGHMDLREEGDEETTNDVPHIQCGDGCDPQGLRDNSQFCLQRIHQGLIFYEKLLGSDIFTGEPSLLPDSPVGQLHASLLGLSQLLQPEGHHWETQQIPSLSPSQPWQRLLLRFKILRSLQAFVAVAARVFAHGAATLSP
T1 sequence 2: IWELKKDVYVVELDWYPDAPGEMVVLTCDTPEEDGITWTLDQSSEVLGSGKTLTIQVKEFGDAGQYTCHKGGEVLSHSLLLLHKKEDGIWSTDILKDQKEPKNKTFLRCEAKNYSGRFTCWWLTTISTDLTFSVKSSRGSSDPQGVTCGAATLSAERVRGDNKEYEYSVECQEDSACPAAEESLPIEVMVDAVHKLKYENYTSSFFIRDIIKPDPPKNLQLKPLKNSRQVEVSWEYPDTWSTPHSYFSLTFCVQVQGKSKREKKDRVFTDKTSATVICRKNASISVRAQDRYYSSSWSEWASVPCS

[2] = target: cynomolgus IL-23 (cynomolgus, UniProt H6WS56 20-189)
[3] = target: T1, Recombinant human IL-23; remark: listed apart in the source

B1: Control Antibody 4 (anti-IL-23A monoclonal antibody) (IL-23A (1)) (antibody, V domains shown)
VH: QVQLVQSGAEVKKPGSSVKVSCKASGYTFTDQTIHWMRQAPGQGLEWIGYIYPRDDSPKYNENFKGKVTITADKSTSTAYMELSSLRSEDTAVYYCAIPDRSGYAWFIYWGQGTLVTVSS
VL: DIQMTQSPSSLSASVGDRVTITCKASRDVAIAVAWYQQKPGKVPKLLIYWASTRHTGVPSRFSGSGSRTDFTLTISSLQPEDVADYFCHQYSSYPFTFGSGTKLEIK
[1]
  IC50, STAT3-luciferase reporter in DB lymphoblast B cells: 0.079 nM
  IC90, STAT3-luciferase reporter in DB lymphoblast B cells: 0.634 nM
[2]
  IC50, IL-23-induced mouse IL-17 release from mouse splenocytes: 0.064 nM
  IC90, IL-23-induced mouse IL-17 release from mouse splenocytes: 0.331 nM
[3]
  IC50, IL-23-induced mouse IL-17 release from mouse splenocytes: 0.084 nM
  IC90, IL-23-induced mouse IL-17 release from mouse splenocytes: 0.366 nM
